Key:
[1] = molecular target: recombinant His-tagged B. malayi fructose-bisphosphate aldolase (B. malayi); assay: far-Western, overlay or dot blot; His-Bm-aldolase (3 µg per lane) run on SDS-PAGE and blotted on nitrocellulose; strips incubated with 1, 2, 5 or 10 µg/ml His-wBm0432 in overlay buffer, 3 h, room temperature; signals quantified with GeneSnap
[2] = molecular target: recombinant His-tagged Wolbachia surface protein wBm0152 (Wolbachia endosymbiont of B. malayi (wBm)); assay: ELISA

Substance | Kd [1] | Kd [2]
recombinant His-tagged Wolbachia surface protein wBm0432 (natural protein) | 510 nM | 
purified bovine actin (from UniProt P68138 1-377) (natural protein) |  | 570 nM

— article PMC3617236
